Columns and labels:
[1] = system: T7-SEPARATE PreScission-cleavable clone, monovalent display (T7Select1-2b)
[2] = system: T7-SEPARATE PreScission-cleavable clone, multivalent display (mid-copy vector)
[3] = system: uncleavable negative control clone (randomly selected 90-aa human peptide from the proteome library)
[4] = system: Fibrinogen (peptides of the human library)

Row | Substance | phage particles recaptured, percent of pre-immobilized phage particles [1] | phage particles released, percent of pre-immobilized phage particles [1] | recapture of the cleavable peptide spiked 1 to 100 into the human library, fold increase versus mock digest [1] | signal-to-noise ratio (highest PreScission concentration versus mock digest) [1] | phage particles recaptured, percent of pre-immobilized phage particles [2] | phage particles released, percent of pre-immobilized phage particles [2] | signal-to-noise ratio (highest PreScission concentration versus mock digest) [2] | phage particles recaptured, percent of immobilized phage particles [3] | enrichment in SEPARATE (human library digest) [4]
1 | PreScission enzyme (human rhinovirus 3C protease, GE Life Sciences) | up to 53% and 43%, respectively | up to 53% | 26-fold increase | 23.4 | up to 24% and 22.5%, respectively | up to 24% and 22.5%, respectively | 11.9 | ~1% of the immobilized phage particles were similarly recaptured, whether the PreScission enzyme was included in the digest reaction or not | 
2 | Thrombin |  |  |  |  |  |  |  |  | did not score in the assay, and this was true for other canonical enzyme-substrate pairs such as Thrombin/Fibrinogen

Reference: US20200407467
